Experimental findings from paper PMC8452626 are described below.

The target in the test is Rabbit skeletal actin (unoxidized) (rabbit) (UniProt P68135). The test is described as follows: other fluorescence titration; profilin stock titrated into 0.15 uM actin; quenching of the intrinsic tryptophan fluorescence of actin, excitation 295 nm, emission 330 nm; 5 mM PIPES pH 7, 0.2 mM CaCl2, 0.2 mM ATP, 0.5 mM DTT (G-buffer conditions).

“human profilin-1 (from UniProt P07737 1-140) (natural protein; other documents disagree on this pair)” gave a Kd of 500 nM.

What is called Kd is the free concentration of one partner at which half of the binding sites on the other are occupied at equilibrium, for simple one-to-one binding. Read a high Kd as weaker binding.
